Laboratory results taken from paper PMC6044951.

Substrate: O=c1ccn([C@@H]2O[C@H](CO[P@@](=O)(O)O[P@@](=O)(O)O[C@H]3O[C@H](CO)[C@@H](O)[C@H](O)[C@H]3O)[C@@H](O)[C@H]2O)c(=O)[nH]1
Test: purified protein
Conditions: 30 °C, Michaelis-Menten fit

B1: BcsA-BcsB (Cereibacter sphaeroides 2.4.1) (protein)
chain: MTVRAKARSPLRVVPVLLFLLWVALLVPFGLLAAAPVAPSAQGLIALSAVVLVALLKPFADKMVPRFLLLSAASMLVMRYWFWRLFETLPPPALDASFLFALLLFAVETFSISIFFLNGFLSADPTDRPFPRPLQPEELPTVDILVPSYNEPADMLSVTLAAAKNMIYPARLRTVVLCDDGGTDQRCMSPDPELAQKAQERRRELQQLCRELGVVYSTRERNEHAKAGNMSAALERLKGELVVVFDADHVPSRDFLARTVGYFVEDPDLFLVQTPHFFINPDPIQRNLALGDRCPPENEMFYGKIHRGLDRWGGAFFCGSAAVLRRRALDEAGGFAGETITEDAETALEIHSRGWKSLYIDRAMIAGLQPETFASFIQQRGRWATGMMQMLLLKNPLFRRGLGIAQRLCYLNSMSFWFFPLVRMMFLVAPLIYLFFGIEIFVATFEEVLAYMPGYLAVSFLVQNALFARQRWPLVSEVYEVAQAPYLARAIVTTLLRPRSARFAVTAKDETLSENYISPIYRPLLFTFLLCLSGVLATLVRWVAFPGDRSVLLVVGGWAVLNVLLVGFALRAVAEKQQRRAAPRVQMEVPAEAQIPAFGNRSLTATVLDASTSGVRLLVRLPGVGDPHPALEAGGLIQFQPKFPDAPQLERMVRGRIRSARREGGTVMVGVIFEAGQPIAVRETVAYLIFGESAHWRTMREATMRPIGLLHGMARILWMAAASLPKTARDFMDEPARRRRRHEEPKEKQAHLLAFGTDFSTEPDWAGELLDPTAQVSARPNTVAWGSN
  Km: 340 ± 70 µM
  kcat: 0.43 ± 0.17 s⁻¹
